According to publication PMC6721692:

Experiments:
[1] = molecular target: endogenous TrkB of cultured rat hippocampal neurons (rat (endogenous in hippocampal neurons)) (UniProt Q63604); experiment: non-reducing SDS-PAGE and Western blot; lysates of rat hippocampal neurons (vehicle or BDNF 1.0 nM) with SDS, without β-ME; blots with 80E3 and MM12
[2] = molecular target: endogenous TrkB of cultured rat hippocampal neurons (rat (endogenous in hippocampal neurons)) (UniProt Q63604); experiment: native gel or EMSA; native PAGE (no SDS, no β-ME) of lysates of rat hippocampal neurons treated with vehicle or BDNF (1.0 nM, 15 min); Western blot with anti-TrkB antibodies (80E3, MM12)

endogenous TrkB of cultured rat hippocampal neurons, Q63604 32-821 (receptor; other documents disagree on this pair), sequence (Q63604 32-821): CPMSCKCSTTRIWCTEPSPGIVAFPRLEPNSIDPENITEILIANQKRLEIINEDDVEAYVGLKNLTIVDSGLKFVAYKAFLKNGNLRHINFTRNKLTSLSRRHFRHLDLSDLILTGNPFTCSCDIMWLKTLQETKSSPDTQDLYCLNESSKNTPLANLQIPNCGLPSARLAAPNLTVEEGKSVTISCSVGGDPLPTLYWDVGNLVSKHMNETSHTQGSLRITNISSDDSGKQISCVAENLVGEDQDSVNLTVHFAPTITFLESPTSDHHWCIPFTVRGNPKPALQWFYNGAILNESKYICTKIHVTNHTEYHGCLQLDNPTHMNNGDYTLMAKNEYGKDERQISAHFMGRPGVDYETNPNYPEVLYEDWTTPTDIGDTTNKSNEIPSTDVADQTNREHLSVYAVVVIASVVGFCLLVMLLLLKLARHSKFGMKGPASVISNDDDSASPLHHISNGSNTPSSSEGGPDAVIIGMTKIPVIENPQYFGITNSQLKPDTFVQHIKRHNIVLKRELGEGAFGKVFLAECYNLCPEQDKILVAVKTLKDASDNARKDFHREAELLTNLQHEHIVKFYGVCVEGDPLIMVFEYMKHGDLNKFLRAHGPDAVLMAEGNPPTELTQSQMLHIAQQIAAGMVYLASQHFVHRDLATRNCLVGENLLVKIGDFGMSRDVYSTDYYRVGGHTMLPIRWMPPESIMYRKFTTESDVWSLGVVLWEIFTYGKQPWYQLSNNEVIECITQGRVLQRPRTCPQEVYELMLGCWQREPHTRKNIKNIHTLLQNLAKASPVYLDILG

- stoichiometry N [1]: 2
- stoichiometry N [2]: 2
Substance: endogenous TrkB of cultured rat hippocampal neurons, Q63604 32-821 (receptor; other documents disagree on this pair)
